This note sets out measurements from paper PMC8487046.

Experiment [1] addresses full‐length SREC‐II at the surface of stably transfected CHO cells (UniProt Q96GP6). The experiment can be described thus: flow cytometry on cells; SREC-II-overexpressing CHO cells against nontransfected CHO cells, on ice, PBS with 3% BSA; C1q 80 µg/mL (40 min, detected with anti-C1q and Cy-3 anti-mouse antibodies); Alexa Fluor 488-MalBSA or Alexa Fluor 568-CRT at 1, 5 and 10 µg/mL (30 min); MFI ratio. For orientation: In flow cytometry, cells or beads pass a laser one at a time.

Experiment [2] deals with acetylated BSA (AcBSA) (bovine (from the name BSA)) (UniProt P02769). The experiment can be described thus: SPR; AcBSA immobilized (900 RU, CM5, amine coupling; BSA as reference surface), serially diluted SREC-II(44-442) or SR-F1(20-421) injected; TBS-Ca-P; 20 µL/min; 25 °C; global fit, 1:1 Langmuir model; apparent KD. (In SPR one partner is held on a chip, and binding of the other changes the refractive index at the surface.)

Sequence of SREC‐II(44‐442), extracellular domain of scavenger receptor expressed by endothelial cells II (Q96GP6 other isoform, or with tags, fused parts or gaps): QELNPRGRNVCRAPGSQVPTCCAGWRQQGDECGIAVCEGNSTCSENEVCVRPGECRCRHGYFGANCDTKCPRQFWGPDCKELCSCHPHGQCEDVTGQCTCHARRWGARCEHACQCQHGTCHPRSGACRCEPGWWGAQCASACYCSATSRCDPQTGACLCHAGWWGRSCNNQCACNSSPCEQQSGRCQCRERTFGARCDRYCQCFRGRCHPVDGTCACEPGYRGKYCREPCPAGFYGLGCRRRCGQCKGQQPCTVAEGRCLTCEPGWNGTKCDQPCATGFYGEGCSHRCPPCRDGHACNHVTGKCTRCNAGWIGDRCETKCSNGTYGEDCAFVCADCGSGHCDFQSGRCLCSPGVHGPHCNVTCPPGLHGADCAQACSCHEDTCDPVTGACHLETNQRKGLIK
Sequence of full‐length SREC‐II at the surface of stably transfected CHO cells (Q96GP6 44-871): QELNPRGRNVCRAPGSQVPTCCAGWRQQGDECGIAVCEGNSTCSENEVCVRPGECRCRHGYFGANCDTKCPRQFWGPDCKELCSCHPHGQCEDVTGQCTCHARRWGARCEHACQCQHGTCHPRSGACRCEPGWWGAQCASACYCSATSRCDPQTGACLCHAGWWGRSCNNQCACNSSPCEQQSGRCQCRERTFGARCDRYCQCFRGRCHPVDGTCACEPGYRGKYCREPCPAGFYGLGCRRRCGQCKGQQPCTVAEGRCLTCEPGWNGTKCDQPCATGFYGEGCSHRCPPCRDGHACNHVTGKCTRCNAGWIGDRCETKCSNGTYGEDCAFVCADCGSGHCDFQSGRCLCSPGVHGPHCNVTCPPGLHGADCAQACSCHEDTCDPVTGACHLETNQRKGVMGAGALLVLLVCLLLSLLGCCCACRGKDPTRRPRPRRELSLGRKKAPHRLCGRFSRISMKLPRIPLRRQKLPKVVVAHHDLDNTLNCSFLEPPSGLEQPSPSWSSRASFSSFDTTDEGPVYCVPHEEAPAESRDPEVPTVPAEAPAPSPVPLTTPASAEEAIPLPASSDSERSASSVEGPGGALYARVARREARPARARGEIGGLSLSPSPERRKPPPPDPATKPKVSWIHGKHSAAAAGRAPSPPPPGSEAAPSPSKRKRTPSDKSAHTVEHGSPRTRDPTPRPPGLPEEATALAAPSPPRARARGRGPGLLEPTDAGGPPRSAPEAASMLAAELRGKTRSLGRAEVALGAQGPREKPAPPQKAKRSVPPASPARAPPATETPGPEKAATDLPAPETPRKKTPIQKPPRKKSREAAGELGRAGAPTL
Sequence of Alexa Fluor 488‐labelled MalBSA (P02769 25-607): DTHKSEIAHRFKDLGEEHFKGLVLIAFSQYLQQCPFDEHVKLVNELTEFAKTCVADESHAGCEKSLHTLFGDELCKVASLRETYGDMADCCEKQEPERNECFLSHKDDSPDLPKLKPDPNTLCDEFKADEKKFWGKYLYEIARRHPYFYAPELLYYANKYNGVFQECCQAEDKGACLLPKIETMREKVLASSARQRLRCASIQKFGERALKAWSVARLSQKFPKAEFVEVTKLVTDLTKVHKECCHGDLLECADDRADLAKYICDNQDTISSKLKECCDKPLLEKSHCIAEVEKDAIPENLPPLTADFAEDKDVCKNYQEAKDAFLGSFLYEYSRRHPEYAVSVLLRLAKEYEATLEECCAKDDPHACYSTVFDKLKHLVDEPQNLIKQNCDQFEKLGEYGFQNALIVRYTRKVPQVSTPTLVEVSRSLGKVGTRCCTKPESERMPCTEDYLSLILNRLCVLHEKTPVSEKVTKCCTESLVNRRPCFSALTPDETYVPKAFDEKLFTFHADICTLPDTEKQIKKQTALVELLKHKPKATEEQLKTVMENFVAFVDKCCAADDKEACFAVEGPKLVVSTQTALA

Turning to “Alexa Fluor 488‐labelled MalBSA (from UniProt P02769 25-607)”, the increase in binding compared with nontransfected CHO cells in experiment [1] lay in the range of 40 to 50%.

As to “SREC‐II(44‐442), extracellular domain of scavenger receptor expressed by endothelial cells II (from UniProt Q96GP6 44-442) (domain or fragment)”, in experiment [2], the Kd came out at 200 nM; the koff (as a rule, the rate constant with which the complex falls apart) was 0.00015 s⁻¹; the kon (usually the second-order rate constant of association) amounted to 7800 M⁻¹ s⁻¹.
